Reference: paper PMC3561337
Substitutions are numbered along the chain they refer to. Names and notes keep the numbering of the source.

B1: full length S45N dynamin-1 (enzyme)
chain: MGNRGMEDLIPLVNRLQDAFSAIGQNADLDLPQIAVVGGQSAGKNSVLENFVGRDFLPRGSGIVTRRPLVLQLVNATTEYAEFLHCKGKKFTDFEEVRLEIEAETDRVTGTNKGISPVPINLRVYSPHVLNLTLVDLPGMTKVPVGDQPPDIEFQIRDMLMQFVTKENCLILAVSPANSDLANSDALKVAKEVDPQGQRTIGVITKLDLMDEGTDARDVLENKLLPLRRGYIGVVNRSQKDIDGKKDITAALAAERKFFLSHPSYRHLADRMGTPYLQKVLNQQLTNHIRDTLPGLRNKLQSQLLSIEKEVEEYKNFRPDDPARKTKALLQMVQQFAVDFEKRIEGSGDQIDTYELSGGARINRIFHERFPFELVKMEFDEKELRREISYAIKNIHGIRTGLFTPDMAFETIVKKQVKKIREPCLKCVDMVISELISTVRQCTKKLQQYPRLREEMERIVTTHIREREGRTKEQVMLLIDIELAYMNTNHEDFIGFANAQQRSNQMNKKKTSGNQDEILVIRKGWLTINNIGIMKGGSKEYWFVLTAENLSWYKDDEEKEKKYMLSVDNLKLRDVEKGFMSSKHIFALFNTEQRNVYKDYRQLELACETQEEVDSWKASFLRAGVYPERVGDKEKASETEENGSDSFMHSMDPQLERQVETIRNLVDSYMAIVNKTVRDLMPKTIMHLMINNTKEFIFSELLANLYSCGDQNTLMEESAEQAQRRDEMLRMYHALKEALSIIGDINTTTVSTPMPPPVDDSWLQVQSVPAGRRSPTSSPTPQRRAPAVPPARPGSRGPAPGPPPAGSALGGAPPVPSRPGASPDPFGPPPQVPSRPNRAPPGVPSRSGQASPSRPESPRPPFDL
B2: full length Q40E dynamin-1 (enzyme)
chain: B1 chain with Q40E, N45S

Molecular target: T1, full length WT dynamin-1 (UniProt Q05193)
T1 sequence: B1 chain with N45S

inhibition of fission activity (vesicle release from SUPER templates) of 0.5 µM WT dynamin-1 by increasing S45N (∼50% at mutant:WT 0.5; value given at 1:1), 1 mM GTP, room temperature [%] | inhibition of fission activity (vesicle release from SUPER templates) of 0.5 µM WT dynamin-1 by increasing Q40E (∼50% at mutant:WT 0.5; value given at 1:1), 1 mM GTP, room temperature [%] | Binder
80 |  | B1
 | 60 | B2
